Test results: the supplement of paper PMC10201428
± gives the standard deviation of the averaged measurements.

B1: library; a variant is named by its letters at N, in order (parent)
chain: AATGTTGTTGATGCAACCATAAAGTGATATTTAATAATTATTTATAATCAGCAACTTAACCACAAAACAACCATATATTGATATNTCACAAAACAACCATAANTTGATATTTTTGTGAATCGAGTATTTCAGCAAAACTACTGCAGTAAGAA

Key:
[1] = variants of: B1; test: relative integration efficiency (T-LR orientation) vs wild-type transposon end (log2 (normalized fold change)); transposon end mutated: left end; higher = more efficient transposition; conditions: with VchCAST RNA-guided transposition machinery (E. coli BL21(DE3) host, lacZ target)
Method: (§1)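 Pooled, barcoded VchCAST (Tn6677) mini-transposon donor libraries; each variable transposon-end sequence sits in a fixed pDonor mini-transposon context (10-bp barcode and cargo not included). Left- or right-end libraries were co-transformed with pEffector (TniQ-Cascade, TnsABC, lacZ crRNA, T7, 0.1 mM IPTG) into E. coli BL21(DE3) and grown 18 h at 37 C. T-LR and T-RL junction amplicons were sequenced; output/input barcode fold change was normalised to the mean of four wild-type barcodes and log2-transformed. Two biological replicates; zero-count/undetected variants carry floor values (-10 / -15), censored here. Barcode uncoupling by PCR recombination adds noise.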

[2] = variants of: B1; test: relative integration efficiency (T-RL orientation) vs wild-type transposon end (log2 (normalized fold change)); transposon end mutated: left end; higher = more efficient transposition; conditions: with VchCAST RNA-guided transposition machinery (E. coli BL21(DE3) host, lacZ target)
Method: as §1

## TA A16C G24T T32G A33C T76A T78G C87A T104A T110A T113A
[1]
  relative integration efficiency (log2): -0.325 ± 0.88
[2]
  relative integration efficiency (log2): -0.13 ± 0.49

## TA A16C G24T T32G A33C T76A T78G C87A T104G T113A
[1]
  relative integration efficiency (log2): -0.174 ± 1.1
[2]
  relative integration efficiency (log2): -0.675 ± 0.24

## CA A16C G24T T32G A33C T104A T110A T113A
[1]
  relative integration efficiency (log2): -0.927 ± 0.11
[2]
  relative integration efficiency (log2): -0.976 ± 0.39

## CA A16C G24T T32G A33C T104G T113A
[1]
  relative integration efficiency (log2): -0.783 ± 0.61
[2]
  relative integration efficiency (log2): -0.765 ± 0.33

## TA A22T G24T T31C A33C A70C T76A T84A C87A A96C T110A T113A
[1]
  relative integration efficiency (log2): -0.841 ± 0.82
[2]
  relative integration efficiency (log2): -0.504 ± 0.43

## TA A22T G24T T31C A33C A70C T76A T84A C87A A96C T112G T113C
[1]
  relative integration efficiency (log2): -0.665 ± 0.33
[2]
  relative integration efficiency (log2): -0.334 ± 0.36

## TA A22T G24T T31C A33C A70C T76A T84A C87A A102T T111C T113C
[1]
  relative integration efficiency (log2): -0.102 ± 0.33
[2]
  relative integration efficiency (log2): -0.168 ± 0.35

## TA A22T G24T T31C A33C A70C T76A T84A C87A T104A T110A T113A
[1]
  relative integration efficiency (log2): -0.378 ± 0.91
[2]
  relative integration efficiency (log2): -0.553 ± 0.35

## TA A22T G24T T31C A33C A70C T76A T84A C87A T104G T113A
[1]
  relative integration efficiency (log2): -0.566 ± 0.36
[2]
  relative integration efficiency (log2): -0.81 ± 0.5

## TA A22T G24T T31C A33C A70C T76A T86G A96C T110A T113A
[1]
  relative integration efficiency (log2): 0.00776 ± 0.18
[2]
  relative integration efficiency (log2): -0.657 ± 0.25

## TA A22T G24T T31C A33C A70C T76A T86G A96C T112G T113C
[1]
  relative integration efficiency (log2): -0.771 ± 0.36
[2]
  relative integration efficiency (log2): -0.328 ± 0.2

## TA A22T G24T T31C A33C A70C T76A T86G A102T T111C T113C
[1]
  relative integration efficiency (log2): -0.793 ± 0.32
[2]
  relative integration efficiency (log2): -0.813 ± 0.39

## TA A22T G24T T31C A33C A70C T76A T86G T104A T110A T113A
[1]
  relative integration efficiency (log2): -0.292 ± 0.24
[2]
  relative integration efficiency (log2): -0.768 ± 0.47

## TA A22T G24T T31C A33C A70C T76A T86G T104G T113A
[1]
  relative integration efficiency (log2): -0.49 ± 0.73
[2]
  relative integration efficiency (log2): -0.861 ± 0.53

## CA A22T G24T T31C A33C A96C T110A T113A
[1]
  relative integration efficiency (log2): -0.837 ± 0.2
[2]
  relative integration efficiency (log2): -0.802 ± 0.25

## CA A22T G24T T31C A33C A96C T112G T113C
[1]
  relative integration efficiency (log2): -0.822 ± 0.81
[2]
  relative integration efficiency (log2): -0.76 ± 0.32

## CA A22T G24T T31C A33C A102T T111C T113C
[1]
  relative integration efficiency (log2): -0.528 ± 0.39
[2]
  relative integration efficiency (log2): -0.843 ± 0.57

## TA A22T G24T T31C A33C T76A A77G C87T A96C T110A T113A
[1]
  relative integration efficiency (log2): 0.345 ± 0.28
[2]
  relative integration efficiency (log2): -0.753 ± 0.58

## TA A22T G24T T31C A33C T76A A77G C87T A96C T112G T113C
[1]
  relative integration efficiency (log2): -0.0329 ± 0.84
[2]
  relative integration efficiency (log2): -0.66 ± 0.42

## TA A22T G24T T31C A33C T76A A77G C87T A102T T111C T113C
[1]
  relative integration efficiency (log2): -0.361 ± 0.78
[2]
  relative integration efficiency (log2): -0.688 ± 0.55

## TA A22T G24T T31C A33C T76A A77G C87T T104A T110A T113A
[1]
  relative integration efficiency (log2): 0.0775 ± 0.37
[2]
  relative integration efficiency (log2): -0.819 ± 0.52

## TA A22T G24T T31C A33C T76A A77G C87T T104G T113A
[1]
  relative integration efficiency (log2): -1.13 ± 0.85
[2]
  relative integration efficiency (log2): -1.41 ± 0.56

## TA A22T G24T T31C A33C T76A T78A T84A C87A A96C T110A T113A
[1]
  relative integration efficiency (log2): -0.768 ± 1.2
[2]
  relative integration efficiency (log2): -0.365 ± 0.32

## TA A22T G24T T31C A33C T76A T78A T84A C87A A96C T112G T113C
[1]
  relative integration efficiency (log2): -0.159 ± 0.75
[2]
  relative integration efficiency (log2): -0.261 ± 0.33

## TA A22T G24T T31C A33C T76A T78A T84A C87A A102T T111C T113C
[1]
  relative integration efficiency (log2): -0.838 ± 1.2
[2]
  relative integration efficiency (log2): -0.485 ± 0.43

## TA A22T G24T T31C A33C T76A T78A T84A C87A T104A T110A T113A
[1]
  relative integration efficiency (log2): -0.396 ± 0.056
[2]
  relative integration efficiency (log2): -0.175 ± 0.33

## TA A22T G24T T31C A33C T76A T78A T84A C87A T104G T113A
[1]
  relative integration efficiency (log2): -0.19 ± 0.56
[2]
  relative integration efficiency (log2): -0.579 ± 0.53

## TA A22T G24T T31C A33C T76A T78G C87A A96C T110A T113A
[1]
  relative integration efficiency (log2): -0.606 ± 0.66
[2]
  relative integration efficiency (log2): -0.329 ± 0.25

## TA A22T G24T T31C A33C T76A T78G C87A A96C T112G T113C
[1]
  relative integration efficiency (log2): -0.491 ± 0.49
[2]
  relative integration efficiency (log2): -0.16 ± 0.22
